Publication PMC8537613

Tests used:
Test in all cases: ELISA
[1] = biological target: RSV FxG (respiratory syncytial virus A2 | respiratory syncytial virus (strain not stated for G)) (UniProt P03423)
[2] = biological target: RSV sG
[3] = biological target: RSV F clamp (respiratory syncytial virus A2) (UniProt P03420)
[4] = biological target: NiV FxG (Nipah virus (Malaysia strain) | Nipah virus) (UniProt Q9IH63)
NiV FxG (Nipah virus (Malaysia strain) | Nipah virus), sequence (Q9IH63 whole entry, looked up): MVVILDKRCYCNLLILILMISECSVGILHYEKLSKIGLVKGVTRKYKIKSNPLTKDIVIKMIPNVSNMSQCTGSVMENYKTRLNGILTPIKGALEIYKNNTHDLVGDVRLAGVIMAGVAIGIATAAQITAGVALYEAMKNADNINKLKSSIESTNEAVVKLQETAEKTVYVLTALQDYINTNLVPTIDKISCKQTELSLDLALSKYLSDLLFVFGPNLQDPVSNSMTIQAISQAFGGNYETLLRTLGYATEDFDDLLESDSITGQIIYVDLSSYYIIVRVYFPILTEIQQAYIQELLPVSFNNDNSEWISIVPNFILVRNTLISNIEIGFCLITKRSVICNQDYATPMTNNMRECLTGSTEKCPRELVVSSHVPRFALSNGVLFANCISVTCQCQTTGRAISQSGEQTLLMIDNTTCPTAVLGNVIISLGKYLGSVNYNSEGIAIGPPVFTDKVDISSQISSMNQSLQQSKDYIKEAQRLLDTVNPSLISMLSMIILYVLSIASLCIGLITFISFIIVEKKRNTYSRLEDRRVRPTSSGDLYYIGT

RSV FxG (respiratory syncytial virus A2 | respiratory syncytial virus (strain not stated for G)), sequence (P03423 whole entry): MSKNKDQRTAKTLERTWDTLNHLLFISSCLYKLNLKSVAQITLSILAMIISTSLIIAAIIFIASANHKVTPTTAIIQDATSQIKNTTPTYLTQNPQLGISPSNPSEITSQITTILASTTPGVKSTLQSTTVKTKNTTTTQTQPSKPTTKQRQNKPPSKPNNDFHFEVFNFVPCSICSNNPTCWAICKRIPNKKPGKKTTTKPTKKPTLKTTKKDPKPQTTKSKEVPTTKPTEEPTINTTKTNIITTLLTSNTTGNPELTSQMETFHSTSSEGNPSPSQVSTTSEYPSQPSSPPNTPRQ
RSV F clamp (respiratory syncytial virus A2), sequence (P03420 whole entry, looked up): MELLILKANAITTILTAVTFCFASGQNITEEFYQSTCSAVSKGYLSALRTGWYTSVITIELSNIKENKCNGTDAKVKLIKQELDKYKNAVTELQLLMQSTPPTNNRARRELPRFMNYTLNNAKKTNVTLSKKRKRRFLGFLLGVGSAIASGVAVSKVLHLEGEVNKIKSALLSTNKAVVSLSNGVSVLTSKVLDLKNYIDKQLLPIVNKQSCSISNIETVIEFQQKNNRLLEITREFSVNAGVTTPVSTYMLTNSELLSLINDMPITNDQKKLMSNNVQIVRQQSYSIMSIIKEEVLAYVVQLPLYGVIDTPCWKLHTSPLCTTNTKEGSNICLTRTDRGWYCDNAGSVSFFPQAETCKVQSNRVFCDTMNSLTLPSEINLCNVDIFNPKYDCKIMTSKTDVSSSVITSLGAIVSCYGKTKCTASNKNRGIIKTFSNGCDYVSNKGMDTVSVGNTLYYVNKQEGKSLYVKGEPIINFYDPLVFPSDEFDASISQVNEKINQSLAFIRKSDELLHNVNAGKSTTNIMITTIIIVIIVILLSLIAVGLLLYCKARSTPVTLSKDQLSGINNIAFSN

For 2D10, the Kd [1] was 0.41 nM and the Kd [2] was 1.29 nM.
For 3D3, the Kd [1] was 0.43 nM and the Kd [2] was 2.11 nM.
For D25, the Kd [3] was 0.97 nM and the Kd [1] was 0.48 nM.
MPE8 gave a Kd [3] of 0.64 nM and a Kd [1] of 0.42 nM.
With Mota the Kd [3] was 0.21 nM and the Kd [1] was 0.26 nM.
m102.4 was tested, and the Kd [4] was 0.17 nM.
